The results in this text go back to patent US5843746.

Assay [1] deals with biotinated firefly luciferase bL203 (Luciola lateralis (HEIKE firefly) luciferase fused to an artificial peptide).
Assay [2] addresses chemically modified biotinated firefly luciferase (Photinus pyralis) [luciferase: P08659].
Assay [3] deals with biotinated firefly luciferase bL248 (Luciola lateralis (HEIKE firefly) luciferase fused to a part of E. coli BCCP).

In the case of streptavidin (from UniProt P22629), the values for the remaining activity after mixed with streptavidin in assay [1] and in assay [2] were 93% and 62%, respectively. For the same substance, the activity maintained upon binding to streptavidin in assay [3] amounted to 102%.
